Measured values as given in patent US9689040B2, “Selective inhibitors of tumor-initiating cells” (Children's Medical Center Corporation, priority 2011, dated 2017).

Columns and labels:
BPLER cells [1] = assay: Cell viability after drug treatment (CellTiterGlo / Trypan-Blue); format: cell-based, human; conditions: 24 hr; for sensitivity of BPLER relative to HMLER cells (viability): increasing doses; for relative viability of BPLER and HMLER cells: CellTiterGlo (FIG. 14)
BPE cells = conditions: at the indicated dose
BPLER cells [2] = assay: Apoptosis (Annexin V/PI flow cytometry, caspase 3 and PARP cleavage immunoblot); format: cell-based, human; conditions: 24 hours
Method: BPLER were used as control. […] The percentage of double-positive cells is indicated.
To further define factors underlying such properties of BPLER cells, we first determined the molecular mechanism by which proteasome inhibition affects the growth of these cells.
Immunoblot was performed as described^41. Primary antibodies were as follows: cleaved Caspase 3 (Cell Signaling, rabbit polyclonal, 1:1000), PARP1 (Santa Cruz, rabbit polyclonal, 1:500), MCL1 (Cell Signaling, Rabbit polyclonal, 1:1000), Bim (Santa Cruz, rabbit polyclonal, 1:500), Bik (Cell Signaling, rabbit polyclonal, 1:1000), Puma (Cell Signaling, rabbit polyclonal, 1:1000), Noxa (Calbiochem, mouse monoclonal, 1:500), Bid (Santa Cruz, rabbit polyclonal, 1:500), Bad (Santa Cruz, rabbit polyclonal, 1:500). Antibodies were diluted in 5% milk in TBS-T and incubated O.N. at 4° C. Secondary mouse and rabbit HRP-conjugated antibodies were from Amersham. Protein signal was detected using the ECL Plus kit (Amersham). For flow cytometry, cells were stained as previously described^33, using the following fluorescent-conjugated antibodies: CD44 (BD Biosciences), CD24 (BD Biosciences), CD326 (ESA, Biolegend), Annexin V (Invitrogen). For immunofluorescence microscopy, cells were fixed in 2% PFA for 10 min, permeabilized with 1% Triton X in PBS for 5 min, and incubated with primary antibodies in 0.5% Triton X, 1% FBS in PBS for 30 min at RT. Antibodies were: CK18 (Santa Cruz, mouse monoclonal, 1:100) and CK14 (Millipore, mouse monoclonal, 1:100). After washing the cells were stained sequentially with AlexaFluor647-conjugated secondary antibody (Invitrogen, 1:200) and DAPI (Sigma, 1:5000). For immunohistochemistry, BPLER tumor sections were prepared from paraffin-embedded tissues, deparaffinized and treated with 10% citrate buffer for 15 min. Staining was performed using a BIOGENEX IHC DAB kit (Biogenex) following the manufacturer's protocol. Primary antibodies were: CK14 (Millipore, mouse monoclonal, 1:100), CK5 (Millipore, mouse monoclonal, 1:100), HH3 (Cell Signaling, rabbit polyclonal, 1:100), ER (Abcam, mouse monoclonal, 1:100), Vimentin (Invitrogen, mouse monoclonal 1:100), Ki67 (Millipore, mouse monoclonal, 1:100).

[3] = tested on: BPE, HMLER and BPLER cells; assay: Cell cycle distribution (propidium iodide DNA staining); conditions: BPE, HMLER and BPLER, 24 hours
BPLER cells [4] = assay: Genome-wide siRNA lethality screen (primary screen), CellTiterGlo viability; format: cell-based, human; conditions: for MAD BPLER / Fold BPLER: siRNA pool against the gene; for MAD BPLER: MAD score of viability in BPLER cells; for Fold BPLER: fold viability in BPLER cells
HMLER cells = assay: as above; format: cell-based, human; conditions: for MAD_HMLER / Fold_HMLER: primary screen, HMLER cells; for MAD_HMLER: MAD score; for MAD HMLER: MAD score of viability in HMLER cells; for Fold HMLER: fold viability in HMLER cells
BPLER cells [5] = assay: Secondary (cherry-pick) screen with the 4 individual siRNAs of each pool; conditions: for Cherry_Score: secondary cherry-pick screen, 4 individual siRNAs of each pool
[6] = ratio of Fold_BPLER to Fold_HMLER
[7] = ratio of fold viability BPLER/HMLER
[8] = siRNA pool against the gene, fold viability
[9] = secondary screen with the 4 individual siRNAs of each pool

## O=C(O)C(=O)CBr [BRPA, 3-bromo-pyruvic acid]
BPLER cells [1]
  sensitivity of BPLER relative to HMLER cells (viability): more sensitive

## CC(=O)N(O)CCCCCNC(=O)CCC(=O)N(O)CCCCCNC(=O)CCC(=O)N(O)CCCCCN [Deferoxamine]
BPLER cells [1]
  relative viability of BPLER and HMLER cells: not active

## COc1ccc([C@@H]2CC(=O)c3c(O)cc(O)cc3O2)cc1O [Hesperetin]
BPLER cells [1]
  relative viability of BPLER and HMLER cells: not active

## NC(N)=NOCC[C@H](N)C(=O)O [L-cavananine]
BPLER cells [1]
  relative viability of BPLER and HMLER cells: not active

## COc1ccc2cc(CCC(C)=O)ccc2c1 [Nabumetone]
BPLER cells [1]
  relative viability of BPLER and HMLER cells: not active

## O=C(CCCCCCC(=O)Nc1ccccc1)NO [Vorinostat, N′-hydroxy-N-phenyl-octanediamide]
BPLER cells [1]
  sensitivity of BPLER relative to HMLER cells (viability): selectively lethal for BPLER compared to HMLER
BPE cells
  BPE viability: no effect on BPE viability

## COc1cccc2c1C(=O)c1c(O)c3c(c(O)c1C2=O)C[C@@](O)(C(=O)CO)C[C@@H]3O[C@H]1C[C@H](N)[C@H](O)[C@H](C)O1 [doxorubicin]
BPLER cells [1]
  sensitivity of BPLER relative to HMLER cells (viability): responded similarly

## COC(=O)Nc1nc2ccc(C(=O)c3cccs3)cc2[nH]1 [nocodazole]
BPLER cells [2]
  activation of apoptosis by mitotic arrest: sufficient to activate apoptosis in BPLER cells
[3]
  mitotic arrest: underwent mitotic arrest

B1: TMED3 (nucleic acid, listed as Homo sapiens)
DNA: ATCCCCTTACATCCTCCTAGGACCCGGTCGGTAGTCGTCGCCCCAGCCCGCCGGGGGCGCAGCGCCCGAGCCGCGGCCCTCGAGACGGGACCGAGAGCATCATGGGCAGCACTGTCCCGCGCTCCGCCTCCGTGCTGCTTCTGCTGCTGCTCCTGCGCCGGGCCGAGCAGCCCTGCGGGGCCGAGCTCACCTTCGAGCTGCCGGACAACGCCAAGCAGTGCTTCCACGAGGAGGTGGAGCAGGGCGTGAAGTTCTCCCTGGATTACCAGGTCATCACTGGAGGCCACTACGATGTTGACTGCTATGTAGAGGACCCCCAGGGGAACACCATCTACAGAGAAACGAAGAAGCAGTACGACAGCTTCACGTACCGGGCTGAAGTCAAGGGCGTTTATCAGTTTTGCTTCAGTAATGAGTTTTCCACCTTCTCTCACAAGACCGTCTACTTTGACTTTCAAGTGGGCGATGAGCCTCCCATTCTCCCAGACATGGGGAACAGGGTCACAGCTCTCACCCAGATGGAGTCCGCCTGCGTGACCATCCATGAGGCTCTGAAAACGGTGATTGACTCCCAGACGCATTACCGGCTGCGGGAGGCCCAGGACCGGGCCCGAGCGGAAGACCTTAATAGCCGAGTCTCTTACTGGTCTGTTGGCGAGACGATTGCCCTGTTCGTGGTCAGCTTCAGTCAGGTGCTACTGTTGAAAAGCTTCTTCACAGAAAAACGACCCATCAGCAGGGCAGTCCACTCCTAGCCCCGGCATCCTGCTCTAGGGCCCCTCATGCCCCAGGCTGGAGCAGCTCTCCTAGGTCACAGCCTGCTGGGCTGGGTCGCGTAGCCCAGGGTGGAGGCAGAACGATGCTGCTGTGGTAGCCCTTTGCCTTTCATGCCCATGCTTGATTCTTGCACCTCAGCAGCTGAAGGTCTCAGAGACCAGTAATCAGAAGGCATCCGACTGCATTAAGTGTGCAGCGCTGAAAAGACATTTACAACTAGGCCAGGGATTAGCCACTGTGGGAGGGTGGACAGGCAATGGTTCAGTGGCCTGGCTGTTGGCAGGAACTCCAAGTGCCCAGGCCTCTTGGGCAGCTTAGGGCCCTGCCTCTGTTTCATGATGCATGGGTCATTTGTCTTGGGTGTCCTATCCCATATGGAGAAGAAAGGGGCTCTAAGTTCTGGCTCTTCTTTCTTTGGGGTTCTCTGTACCTGAGGAAACCAGGCCCTGGGTGACTTTGCAGATCTGCTCACCCTCGGTGAGCAACAGTGTCAGCCATGCAAGCAGGACAGAATGGTGACTGGGTGCCCTTGGTGAGCTGTGTATTTCCTAGGAGGTAGAAAACTGTGGGAAACTGTGGCTAATAAAAACTAAGTGTGAGCGTCCTGGAGAAAAAAAAAAAAAAAAAAAAAAAAAAAAAAAAAAAAAAAAAAAAAAAA
BPLER cells [4]; [6]
  Ratio BPLER/HMLER: 0.68
BPLER cells [4]; [7]
  Ratio BPLER/HMLER: 0.68
BPLER cells [4]
  MAD BPLER: −2.93
  Fold BPLER: 0.537
HMLER cells; siRNA pool against the gene
  MAD_HMLER: −1.28
  MAD HMLER: −1.28
  Fold HMLER: 0.80
HMLER cells; [8]
  Fold_HMLER: 0.80
BPLER cells [5]
  Cherry_Score: 2
BPLER cells [5]; [9]
  Cherry Score: 2

B2: TMEM14B (nucleic acid, listed as Homo sapiens)
DNA: TTTCTCCCCGCCCTGCCGCGGCCCCGGGGCGCAGCGCGCACGCAATCGCGTTTCCGGAGAGACCTGGCTGCTGTGTCCCGCGGCTTGCGCTCCGTAGTGGACTCCGCGGGCCTTCGGCAGATGCAGGCCTGGGGTAGTCTCCTTTCTGGACTGAGAAGAGAAGAATGGAGAAGCCCCTCTTCCCATTAGTGCCTTTGCATTGGTTTGGCTTTGGCTACACAGCACTGGTTGTTTCTGGTGGGATCGTTGGCTATGTAAAAACAGGCAGCGTGCCGTCCCTGGCTGCAGGGCTGCTCTTCGGCAGTCTAGCCGGCCTGGGTGCTTACCAGCTGTATCAGGATCCAAGGAACGTTTGGGGTTTCCTAGCCGCTACATCTGTTACTTTTGTTGGTGTTATGGGAATGAGATCCTACTACTATGGAAAATTCATGCCTGTAGGTTTAATTGCAGGTGCCAGTTTGCTGATGGCCGCCAAAGTTGGAGTTCGTATGTTGATGACATCTGATTAGCAGAAGTCATGTTCCAGCTTGGACTCATGAAGGATTAAAAATCTGCATCTTCCACTATTTTCAATGTATTAAGAGAAATAAGTGCAGCATTTTTGCATCTGACATTTTACCTAAAAAAAAAAAGACACCAAATTTGGCGGAGGGGTGGAAAATCAGTTGTTACCATTATAACCCTACAGAGGTGGTGAGCATGTAACATGAGCTTATTGAGACCATCATAGAGATCGATTCTTGTATATTGATTTTATCTCTTTCTGTATCTATAGGTAAATCTCAAGGGTAAAATGTTAGGTGTTGACATTGAGAACCCTGAAACCCCATTCCCTGCTCAGAGGAACAGTGTGAAAAAAAATCTCTTGAGAGATTTAGAATATCTTTTCTTTTGCTCATCTTAGACCACAGACTGACTTTGAAATTATGTTAAGTGAAATATCAATGAAAATAAAGTTTACTATAAATAATAAAAAAAAAAAAAAAAAA
BPLER cells [4]; [6]
  Ratio BPLER/HMLER: 0.71
BPLER cells [4]; [7]
  Ratio BPLER/HMLER: 0.71
BPLER cells [4]
  MAD BPLER: −1.99
  Fold BPLER: 0.636
HMLER cells; siRNA pool against the gene
  MAD_HMLER: −0.56
  MAD HMLER: −0.56
  Fold HMLER: 0.90
HMLER cells; [8]
  Fold_HMLER: 0.90
BPLER cells [5]
  Cherry_Score: 1
BPLER cells [5]; [9]
  Cherry Score: 1

B3: NM_194324 (nucleic acid, listed as Homo sapiens)
DNA: AGCACTGCAGGGCTCTGGGCGGGAAGGCTAACCTGGTGCGGAGCCAGCCTGGGTCTCAGCCCCGCGTACGGCCTTTCACGAGTCTTCAAGCCTTCAGGCTTTCTTCTAGTCAAGATGAGTGATAAACCAGACTTGTCGGAAGTGGAGAAGTTTGACAGGTCAAAACTGAAGAAAACTAATACTGAAGAAAAAAATACTCTTCCCTCAAAGGAAACTATCCAGCAGGAGAAAGAGTGTGTTCAAACATCATAAAATGGGGATCTCCTCCAAAGAGCAGATTTCAGCATTGCCTGACAGTCTTGGTTTTAGGCTTGTTTTTTTGTAAACCTGTGTGTTTGTAGAGATTTCAGACATCTTCTGATTTCTTCTCACCTATATTCCCTGGTTAAGAGGTCAGGGGTAGTGAATGTTTCCTTAAGTTCCTTTTTAAACTTCCCATTGGTATGTAAATTCCAAATGGCAGATGCTGTCAATAACCTTGCCATGGATGACCTTTGTGTAGGTAGTCCTTGCACCTCATGCAGGATAAGCCAATTTTAACTTTCTACAATGGGTGCCTCAATAGTTTCATAATCTTCATGAAGTTGCATCCTTTGGCAGCTTCTTACAGTTTATTTTCACTTCCAATGTAGCAATAAAATAATAAATATAATCGTTGTTGTCTGAAAAAAAAAAAAAAAAAA
BPLER cells [4]; R, BPLER versus HMLER, primary screen
  Ratio: 0.74
HMLER cells; siRNA pool
  Fold_HMLER: 0.87
BPLER cells [5]; validation screen with individual siRNAs of each pool
  Cherry Score: 1
